The values that follow come from patent US20260167731A1 (DOMAIN THERAPEUTICS, published 2026).

For experiment [1], the target named is T1, human CCR8 (human, UniProt P51685 1-355).
T1 construct: also called hCCR8; hCCR8_P51685
The experiment is described as follows: flow cytometry, inhibition of hCCL1-AF647 binding to hCCR8 CHO cells. The method, then: The hCCR8 transfected CHO cell line was dispatched at a density of 1·10⁵ per well in a 96-well plate. Cells were incubated for 30 min at 4° C. with or without anti-CCR8 mAb tested at 10 μg/mL then diluted at 1/3. Unbound antibodies were washed away with PBS (Gibco, Villebon-sur-Yvette, France) supplemented by 2% Fetal Bovine Serum (Invitrogen by Thermofisher Scientific, Illkirch-Graffenstaden, France) and 2 mM EDTA. […] After washing unbound ligands, CCL1 bound detection is quantified on a MacsQuant16 (Miltenyi, Gladbach, Germany) (R1 channel, 5 000 events per acquisition).
For IC₅₀ determination, a concentration response curve is performed using 8 concentrations of mAb. Curves are fitted and IC₅₀ of CCL1 binding blocking activity is calculated using the sigmoidal dose-response (variable slope) model on GraphPad Prism 9 (GraphPad Software, San Diego, CA, USA).

Experiment [2] concerns the target T1, human CCR8. The experiment is described as follows: cell-based or functional assay.
For experiment [3], the target named is T2, pwt1, unmodified CCR8 related peptide (human, none (non-sulfated Y15, Y16, Y17)).
T2 construct: First 34 amino acids of human CCR8, synthetic; also called unmodified peptide
Nature of the experiment: ELISA on coated CCR8 peptide (500 ng/mL), OD [cont.]. How it is done: (§1) The specific binding properties of antibodies were evaluated by ELISA with coated CCR8 related peptides (500 ng/mL) in carbonate/bicarbonate buffer. Different peptides were used as described in Table 1 (see Example 1). Each anti-CCR8 mAb was tested at 1 μg/mL then diluted at 1/10. After an incubation at room temperature during 90 min, unbound mAbs were removed by washings. […] After washings, 3,3′,5,5′-tetramethylbenzidine (TMB) (Interchim, Montlugon, France) was added for 15 min. Then the optical density (OD) was determined by using a multiplate reader (Tecan, Lyon, France) and correlated with mAb reactivity on the panel of coated peptides.
(In general: ELISA stands for enzyme-linked immunosorbent assay.)

The target of experiment [4] is pm3, modified CCR8 related peptide (human, sulfated tyrosine at Y17). The description is as above. The method, then: as §1
Experiment [5] has as its target pm6, modified CCR8 related peptide (human, sulfated tyrosines at Y16 and Y17). Described as above. How it is done: as §1
Experiment [6] concerns the target pm4, modified CCR8 related peptide (human, sulfated tyrosines at Y15 and Y16). Described as above. The method, then: as §1
Experiment [7] has as its target pm1, modified CCR8 related peptide (human, sulfated tyrosine at Y15). Described as above. The method, then: as §1
The target of experiment [8] is pm2, modified CCR8 related peptide (human, sulfated tyrosine at Y16). The experiment is described as above. The method, then:
as §1

Experiment [9] concerns the target pm5, modified CCR8 related peptide (human, sulfated tyrosines at Y15 and Y17). The experiment is described as above. The method, then:
as §1

Experiment [10] addresses pm8, modified CCR8 related peptide (human, sulfated tyrosines at Y15, Y16 and Y17). Described as above. The method, then: as §1
Experiment [11] has as its target T1, human CCR8. Nature of the experiment: flow cytometry, hCCR8 transfected CHOK1 cells. The method, then:
The same staining protocol was applied on human CCR8 transfected CHO cell line versus wild type CHO cell line, cutaneous T cell lymphoma HUT78 cell line and human activated T cell model.
Briefly, 1·10⁵ cells per well in a 96 well plate were incubated with a dilution of unconjugated anti-CCR8 mAb at 10 μg/mL then diluted at 1/3.33, 4 dilution points (during 30 min at 4° C.). In human activated T cells model, prior to mAb incubation, cells were first incubated with 200 nM of hCCL1 (R&D Systems, Minneapolis, MN, USA) or buffer PBS (Invitrogen by Thermofisher Scientific, Illkirch-Graffenstaden, France) supplemented by 2% Fetal Bovine Serum (Invitrogen by Thermofisher Scientific, Illkirch-Graffenstaden, France) and 2 mM EDTA (Invitrogen by Thermofisher Scientific, Illkirch-Graffenstaden, France) during 1 hour at 4° C. To determine EC50 value, 8 concentrations of anti-CCR8 mAb were tested. Unbound antibodies were washed away with PBS (Invitrogen by Thermofisher Scientific, Illkirch-Graffenstaden, France) supplemented by 2% Fetal Bovine Serum (Invitrogen by Thermofisher Scientific, Illkirch-Graffenstaden, France) and 2 mM EDTA (Invitrogen by Thermofisher Scientific, Illkirch-Graffenstaden, France). Subsequently, cells are centrifuged (5 min at 400 g) and bound antibody is detected with F(ab′)₂-Goat anti-Mouse IgG (H+L) Cross-Adsorbed Secondary Antibody, Alexa Fluor 488 (dilution 1/500) (Invitrogen by Thermofisher Scientific, Illkirch-Graffenstaden, France) or with F(ab′)₂-Goat anti-Human IgG Fc Secondary Antibody, PE (Invitrogen by Thermofisher Scientific, Illkirch-Graffenstaden, France) (dilution 1/1000) at 4° C. for 30 min. Detection reagent is washed away and cells are centrifuged (5 min at 400 g) and resuspended in 30 μL PBS. Bound detection antibody is quantified on a MacsQuant16 (Miltenyi, Gladbach, Germany) (B1 or B2 channel, 5000 events per acquisition). During the experiment, the respective isotype mAb controls (mouse IgG1, mouse IgG2a, mouse IgG2b, mouse IgG3 or human IgG1) (Biolegend, Amsterdam, The Netherlands) are included to exclude any unspecific binding events.
A general note: In flow cytometry, cells or beads pass a laser one at a time.

For experiment [12], the target named is T1, human CCR8. Nature of the experiment: cell-based or functional assay. The source holds these as a separate data set.
Experiment [13] addresses T1, human CCR8. The experiment is described as follows: cell-based or functional assay. This is another data set of the same source.
Experiment [14] has as its target T1, human CCR8. The experiment is described as follows: cell-based or functional assay. This is another data set of the same source.

Numbering of substitutions follows the chain as printed. Several values for one entry are separate records, joined by “and”; a condition that tells them apart may be missing. Identical values can stand only once.

pm6, modified CCR8 related peptide (human, sulfated tyrosines at Y16 and Y17), sequence (peptide, as listed by the source): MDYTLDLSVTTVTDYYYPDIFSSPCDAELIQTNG
pm8, modified CCR8 related peptide (human, sulfated tyrosines at Y15, Y16 and Y17), sequence (peptide, as listed by the source): as above
pm3, modified CCR8 related peptide (human, sulfated tyrosine at Y17), sequence (peptide, as listed by the source): as above
pm2, modified CCR8 related peptide (human, sulfated tyrosine at Y16), sequence (peptide, as listed by the source): as above
pm1, modified CCR8 related peptide (human, sulfated tyrosine at Y15), sequence (peptide, as listed by the source): as above
pm5, modified CCR8 related peptide (human, sulfated tyrosines at Y15 and Y17), sequence (peptide, as listed by the source): as above
T2 sequence (peptide, as listed by the source): as above
pm4, modified CCR8 related peptide (human, sulfated tyrosines at Y15 and Y16), sequence (peptide, as listed by the source): as above

B1: anti-CCR8 mAb 2-6 (antibody, V domains shown)
VH: QVQLKESGPGLVAPSQSLSITCTVSGLSMNDYVVTWIRQPPGKGLEWLGVIWGGGNTYYNSDLKSRLSITKDNSKSQVFFKMSSLQTDDTAVYYCARRHRDYALDYWGQGISVTVSS
VL: ENVLTQSPAIMSASPGEKVTMTCRASSSVSSSYLHWYQQKSGASPKLWIYSTSNLASGVPARFSGSGSGTSYSLTISSVEAEDAATYYCQQYSGYPYTFGGGTKLEIK
For the molecule B1, the IC50 (usually the concentration needed to halve the response being measured) in experiment [1] is 1.25 µg/mL and 8.34 nM. For the same molecule, the “IC50, CCL1 induced hCCR8 Gi2 signaling (BRET, HEK-293)” value (shortened to “IC50 … (BRET, HEK-293)”) in experiment [2] was 0.106 µg/mL and 0.706 nM. Moreover, the binding result in experiment [3], in experiment [4], in [5], in experiment [6], in experiment [7] and in [8] was “binds” in each case. In addition, the binding result in experiment [9] and in [10] was “binds” throughout. Further, the “% positive cells” value in [11] was 69.9%. Moreover, in experiment [11], the “MFI fold change to isotype ctrl” value is 5.81 fold.

B2: anti-CCR8 mAb 2-5 (antibody, V domains shown)
VH: EVQLQQSGPELVKPGASVKISCKTSGYTFTEYTIHWVKQSHGKSLEWVGGINPDNGNTRYDQKFKGKATLTIDKSSSTAYMELRSLTSEDSAVYYCARVARSSGSGPYAMDYWGQGTSVTVSS
VL: DVVMTQTPLSLPVSLGDQASISCRCTQSLLHTNGDTYLHWYLQKPGQSPKLLIYKVSNRFSGVPDRFSGSGSGTDFTLKISRVEAEDLGVYFCSQSTHVPYTFGGGTKLEIK
With B2, the IC50 in [1] was 1.15 µg/mL and 7.73 nM. In addition, the “IC50 … (BRET, HEK-293)” value in experiment [2] was 0.044 µg/mL and 0.291 nM. The binding result in experiment [3], in experiment [4], in experiment [5], in experiment [6], in experiment [7] and in [8] was “binds” in each case. The binding result in experiment [9] and in [10] was “binds” throughout. Further, in experiment [11], the “% positive cells” value was found to be 73.7%. Moreover, the “MFI fold change to isotype ctrl” value in experiment [11] was 10.3 fold.

B3: anti-CCR8 mAb 2-7 (antibody, V domains shown)
VH: QVQLKESGPGLVAPSQSLSITCTVSGFSLTDYRVSWIRQPPGKGLEWLGVIWGGRSTYYNSALKSRLSISKDNSKSQVFLKMNSLQTDDTAMYYCAKQGDGYYALDYWGQGTSVTVSS
VL: B2 VL with C25S, T26S, L30V, T32S, N33Y, D35N, S68H, Y101P
In the case of B3, the IC50 in [1] is 2.73 µg/mL and 18.3 nM. The “IC50, CCL1 induced hCCR8 Gi2 signaling (BRET) at pH 6.5” value in [12] is 0.516 µg/ml and 3.44 nM. Moreover, in [12], the “IC50, CCL1 induced hCCR8 Gi2 signaling (BRET) at pH 7.4” value is 0.82 µg/ml and 5.47 nM. In [2], the “IC50 … (BRET, HEK-293)” value is 0.552 µg/mL and 3.68 nM. The binding result in experiment [3], in [4], in experiment [5], in experiment [6], in experiment [7] and in experiment [8] was “binds” in each case. In addition, the binding result in experiment [9] and in experiment [10] was “binds” each time. The “% positive cells” value in experiment [11] was 57.7%. In experiment [11], the “MFI fold change to isotype ctrl” value turned out to be 3.84 fold.

B4: anti-CCR8 mAb 2-9 (antibody, V domains shown)
VH: QVQLQQPGSELVRPGASVKLSCKASGYTFTSYWMHWVKQRPGQGLEWIGNIWPGSASTNYDEKFKNKATLTVDTSSSTAYMQLSSLTSEDSAVYYCIRGGKGAMDYWSQGTSVTVSS
VL: DVVMTQIPLSLPVSLGDQASISCRSSQSLENSYGNTYLNWYLQKPGQSPQLLIYRVSNRFSGVLDRFSGSGSGTDFTLKISRVEAEDLGVYFCLQVTHVPPTFGAGTKLELK
Regarding B4, the IC50 in [1] was 1.18 µg/mL and 7.92 nM. The “IC50 … (BRET, HEK-293)” value in [2] is 0.026 µg/mL and 0.172 nM. In addition, in experiment [13], the “hCCL1 (100 nM) residual response in %, Protocol #2, mAb 0.08 µg/mL (0.53 nM)” value was 99%; the “hCCL1 (100 nM) residual response in %, Protocol #2, mAb 0.4 µg/mL (2.67 nM)” value came out at 83%; the “hCCL1 (100 nM) residual response in %, Protocol #2, mAb 10 µg/mL (66.7 nM)” value turned out to be 56%; the “hCCL1 (100 nM) residual response in %, Protocol #3, mAb 0.05 µg/mL (0.33 nM)” value is 116%. Moreover, in experiment [13], the “hCCL1 (100 nM) residual response in %, Protocol #3, mAb 0.5 µg/mL (3.33 nM)” value is 90% and the “hCCL1 (100 nM) residual response in %, Protocol #3, mAb 5 µg/mL (33.3 nM)” value stood at 45%. Moreover, in [11], the “% positive cells” value was determined as 81.6% and the “MFI fold change to isotype ctrl” value amounted to 9.92 fold.

B5: chimeric anti-CCR8 mAb 2-17 (antibody, human IgG1, kappa)
heavy: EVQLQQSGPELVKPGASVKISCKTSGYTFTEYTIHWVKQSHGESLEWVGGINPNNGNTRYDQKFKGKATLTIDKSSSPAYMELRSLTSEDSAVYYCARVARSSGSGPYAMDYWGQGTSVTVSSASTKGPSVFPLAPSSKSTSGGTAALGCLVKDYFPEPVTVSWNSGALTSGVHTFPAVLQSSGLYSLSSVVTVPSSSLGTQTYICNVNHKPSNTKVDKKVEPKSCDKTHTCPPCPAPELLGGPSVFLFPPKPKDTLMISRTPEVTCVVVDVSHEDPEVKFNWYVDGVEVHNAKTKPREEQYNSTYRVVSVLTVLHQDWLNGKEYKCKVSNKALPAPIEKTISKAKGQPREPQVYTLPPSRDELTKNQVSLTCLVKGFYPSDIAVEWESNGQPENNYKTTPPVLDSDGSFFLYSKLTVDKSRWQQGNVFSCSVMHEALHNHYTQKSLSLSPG
light: DVVMTQTPLSLPVSLGDQASISCRCTQSLLHTNGDTYLHWYLQKPGQSPKLLIYKVSNRFSGVPDRFSGSGSGTDFTLKISRVEAEDLGVYFCSQSTHVPYTFGGGTKLEIKRTVAAPSVFIFPPSDEQLKSGTASVVCLLNNFYPREAKVQWKVDNALQSGNSQESVTEQDSKDSTYSLSSTLTLSKADYEKHKVYACEVTHQGLSSPVTKSFNRGEC
Regarding B5, in [14], the “ADCC % Max lysis, HUT78 targets, NK cells Donor 3” value turned out to be 14%; the “ADCC % Max lysis, HUT78 targets, NK cells Donor 4” value was determined as 15%; the “ADCC EC50, HUT78 targets, NK cells Donor 3” value stood at 793 pM; the “ADCC EC50, HUT78 targets, NK cells Donor 4” value stood at 1520 pM.

B6: hypofucosylated (low fucosylated) chimeric anti-CCR8 mAb 2-19 (antibody, human IgG1, kappa)
heavy: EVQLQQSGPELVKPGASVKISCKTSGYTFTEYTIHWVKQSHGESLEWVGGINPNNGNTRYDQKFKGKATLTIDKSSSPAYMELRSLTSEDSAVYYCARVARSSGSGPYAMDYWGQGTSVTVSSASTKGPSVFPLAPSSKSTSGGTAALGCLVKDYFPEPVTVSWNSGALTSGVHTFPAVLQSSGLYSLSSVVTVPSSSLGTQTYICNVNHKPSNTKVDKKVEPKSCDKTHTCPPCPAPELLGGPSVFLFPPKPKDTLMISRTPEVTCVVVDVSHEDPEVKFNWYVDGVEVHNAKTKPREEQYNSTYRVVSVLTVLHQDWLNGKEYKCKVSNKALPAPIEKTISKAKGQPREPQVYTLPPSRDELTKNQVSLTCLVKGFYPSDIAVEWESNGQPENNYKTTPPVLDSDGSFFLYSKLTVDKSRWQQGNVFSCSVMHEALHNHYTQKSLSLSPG
light: B5 light
modifications: hypofucosylated Fc glycan
For B6, in [14], the “ADCC % Max lysis, HUT78 targets, NK cells Donor 3” value came out at 29%; the “ADCC % Max lysis, HUT78 targets, NK cells Donor 4” value came out at 29%; the “ADCC EC50, HUT78 targets, NK cells Donor 3” value turned out to be 195 pM; the “ADCC EC50, HUT78 targets, NK cells Donor 4” value was found to be 282 pM.
